Measurements published in the supplement of paper PMC9170038.

Tested on: MS2 coat protein
Test: apparent KD of MS2 coat protein; designed switch direction (-1 OFF switch, 1 ON switch): -1; higher = weaker reporter binding
In short: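 RNA switches sharing common flanks were transcribed by stalled E. coli RNA polymerase on Illumina chips. A doubling series of SNAP-549-labelled MS2 coat protein, from 0.7 or 1.5 nM to 3 µM, was applied in Tris-HCl pH 7.5 buffer with KCl, MgCl2, BSA, DTT, tRNA and Tween-20. Each step lasted 0.8–1.5 h at the bottom of the series and 10–20 min at the top. Normalised cluster fluorescence was curve-fitted, giving apparent KD as the per-design median over clusters.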

[1] = input ligand: microRNA oligo, concentration not stated
[2] = Eterna round: R95, input ligand: microRNA oligo, concentration not stated
[3] = Eterna round: R95, input ligand: FMN 200 uM
[4] = Eterna round: R95, input ligand: none

Sequence	apparent KD of MS2 coat protein (input ligand: FMN 200 uM) [µM]	apparent KD of MS2 coat protein (input ligand: none) [µM]	apparent KD of MS2 coat protein [2] [µM]	further results
AUCAGCUCGUCAGGAUAUACAUGAGGAUCACCCAUGUGAUCAAUAGCAGCUUCGGCUGCAUUAAUGUAGAAGGGACGAGCUGAU [ENG2/5-B3] (Eterna round: R96, puzzle: Exclusion NG 2)	0.175	0.407	–	apparent KD of MS2 coat protein [1]: 0.075 µM
ACAUGAGGAUCACCCAUGUACAGGGUUUAGUUUCAUCGUUUGAAGGAUAUACACCGUUAGUUGUCGUAGAAGGUCACAGAUUGG [JR_ExcNG3_Sub009] (Eterna round: R96, puzzle: Exclusion NG 3)	0.153	0.155	–	apparent KD of MS2 coat protein [1]: 0.0682 µM
CCGCUACAUGAGGAUCACCCAUGUCAGGAUAUCGUACGUUCGUCGAUAGACGAUCGUACGAGAAGGGUGUGCGG [Mat - Exclusion 1 - Eli Mod - D36] (Eterna round: R97, puzzle: Exclusion 1)	0.0814	0.139	–	–
UACAUGAGGAUCACCCAUGUUUUGUCGUGUAUGGUAUUUAUCUAGGAUAUCAAUUGAUUUAUUUAUGAGAAGGAGAAUAUUAAU [JMF's solution 15] (Eterna round: R96, puzzle: Exclusion NG 3)	0.0425	0.0395	–	apparent KD of MS2 coat protein [1]: 0.0268 µM
GGGAAGAACCAACAAGUAUACAUGAGGAUCACCCAUGUUCCUAGUGGGUAUGUAAAGAUUAAGAGAGCUCGUCUUAU [AK-miRNA-r3-10] (Eterna round: R97, puzzle: Sensor, turn-off variant 1)	0.0669	0.0753	–	–
CUUUUGUGAGGAUAUCAGUAUUAAAUAAAUAAAAUUACUACUGAGAAGGCACAUGAGGAUCACCCAUGUUCCUC [salish99_ex3_r3_074] (puzzle: Exclusion 4)	–	–	0.0375	–
GAUUAUGCGAGCUUUAGGGACAUGAGGAUCACCCAUGUUCGUCUUAUUAGUCUGGGUACGCUAACAUACCUAAAUCU [JMF 43] (puzzle: Sensor v3, turn-off variant 1)	–	–	0.0414	apparent KD of MS2 coat protein [3]: 0.0301 µM; apparent KD of MS2 coat protein [4]: 0.0287 µM
AGCGUCUGAGGAUAUGCAUCUUAUCAGUCCGUGCGUAAGCGACAUGAGGAUCACCCAUGUAGAAGGUAGAUGCG [Eternabot (L1) Solution 10] (Eterna round: R97, puzzle: Exclusion 2)	0.0196	0.0176	–	–
UAUGAGCUAGGAUAUGCUUUGGGCUCGCUUUCCUUCGAUAAACUUGAGGAUCACCCAAGUAGAAGGAGCUUGUA [Mod 32 - Jieux - Exclusion 2] (Eterna round: R97, puzzle: Exclusion 2)	0.0365	0.0158	–	–
GUAAACGAUGAGGAUAUAUGAUAUCAAAGCAUCAUAGAAGGCAUCACAUGAGGAUCACCCAUGUGAUCUUCUUG [Mat - Exclusion 6 - JL Mod - D30] (Eterna round: R97, puzzle: Exclusion 6)	0.135	0.0313	–	–
AAGGAGUUAGGAUAUCGAAGAAGAAGAAGAAGAAGAAGAAGCGAGAAGGAACAUGAGGAUCACCCAUGUAAGAA [JR_Exclu4_Sub028] (puzzle: Exclusion 4)	–	–	0.0505	apparent KD of MS2 coat protein [3]: 0.0325 µM; apparent KD of MS2 coat protein [4]: 0.0415 µM
UUAAUUAAUGUAGGAUAUGCAAGGCGAACCUAAGCAGAAGGACAUGUGGAUCACCCAUGUAAUGCGGUCUGCGUACAGAUCGCU [salish99_ex1_NG1_001] (Eterna round: R96, puzzle: Exclusion NG 1)	0.271	1.27	–	apparent KD of MS2 coat protein [1]: 1.17 µM
CCAGGAAGGCAGGAUAUCCAAAGCCGUCCCGGCGGAGAAGGGCUGACUUGAGGAUCACCCAAGUGAUGCCUAAC [Aratquve] (Eterna round: R97, puzzle: Exclusion 6)	0.0152	0.0148	–	–
GCACGGAUUGUAGGAUAUCUGUGCGAUUAGCUCAGAGAAGGACACAUGAGGAUCACCCAUGUUACCUCAAUUGGCCUUCCGUGC [Eli exng1 - 031] (Eterna round: R96, puzzle: Exclusion NG 1)	0.128	0.116	–	apparent KD of MS2 coat protein [1]: 0.0707 µM
AAUUUACAUGAGGAUCACCCAUGUGAGGAUAUGAUACUAUGUACUUCGGUACAUAGUAUCAGAAGGCAUGUGGA [Ex1-3: 91] (puzzle: Exclusion 1)	–	–	0.115	–
AAUAAGUUAGGAUAUACAUGAGGAUCACCCAUGUCCCACCCGUUACCUAUGACCAUAUGUAGAAGGAGCAAUAA [Exy#2] (Eterna round: R97, puzzle: Exclusion 3)	0.0621	0.0327	–	–
AUCAUGUGAGGAUAUGUGAUCAACCUUCUAUAUAGAUGAUGACAGAAGGCACAUGAGGAUCACCCAUGUAGAUC [Ex4 - 3 - 20] (puzzle: Exclusion 4)	–	–	0.0451	–
GAGUGACAUGAGGAUCACCCAUGUGAGGAUAUCGGACGGACCUAGUUAACUUCCGCCGCGAGAAGGCACAUCGG [Exclusion 1 V23] (puzzle: Exclusion 1)	–	–	0.0702	–

Sequence	apparent KD of MS2 coat protein (input ligand: FMN 200 uM) [µM]	apparent KD of MS2 coat protein (input ligand: none) [µM]	apparent KD of MS2 coat protein [2] [µM]	further results
CUGUACUGAGGAUAUACAUGAGGAUCACCCAUGUGCUCCAGCUAGGAAACUAGCAAAAGUAGAAGGCAGUACAG [Mat - Exclusion 3 - Eli Mod - D60] (Eterna round: R97, puzzle: Exclusion 3)	0.62	0.0625	–	–
UCAUGUUUAGAGGAUAUGAUUACUCUAGAGUGAUCAGAAGGCUAGACAUGAGGAUCACCCAUGUCAGAACAUGU [Exclusion 6 - B - 17:a] (puzzle: Exclusion 6)	–	–	0.0245	–
CAUUAUGUUGAGGAUAUGCGCCGGAAAACUGACGCAGAAGGCGACACAUGAGGAUCACCCAUGUCAGUUCGCGA [salish99_ex6_r004_424] (Eterna round: R97, puzzle: Exclusion 6)	0.0106	0.0106	–	–
AACAUGUUAGGAUAUGGUCCUGUGCCACAUGGAGGUUUAGGUUAGAAGGGACAUGAGGAUCACCCAUGUUAAAU [Eternabot (L2) Solution 39] (Eterna round: R97, puzzle: Exclusion 4)	0.168	0.183	–	–
AUAAAACAUGAGGAUCACCCAUGUCAGGAUAUACGACUCCAACCAAACUGCUUGGACCGUAGAAGGGACAAGGG [Exclusion 1 (MOD2 Esqu)] (Eterna round: R97, puzzle: Exclusion 1)	0.14	0.277	–	–
CCCGAGUUAGGAUAUAAACCAAAGUAACCAGCAGCUUAGCUUUAGAAGGAACAUGAGGAUCACCCAUGUGGUCU [Eternabot (L2) Solution 70] (Eterna round: R97, puzzle: Exclusion 4)	0.119	0.107	–	–
GGCGAGCAAGGAUAUGCAGGGUAUCCGACUCGCAGCGGGCGACAUGAGGAUCACCCAUGUAGAAGGUGCACGCG [EX2 A.6] (Eterna round: R97, puzzle: Exclusion 2)	0.0239	0.031	–	–
CCGAUGUCAGGAUAUCGUGCAUACAACGAAAGUUCUAUGUGCGAGAAGGGACAUGAGGAUCACCCAUGUUACGG [Omei Ex4 A2] (Eterna round: R97, puzzle: Exclusion 4)	0.131	0.465	–	–
UUUAUAAUUUCAAUCUUCGCCAACAAACUUACGCUGGCCACAUGAGGAUCACCCAUGUUUUUUGUUCGUUUUAUUCU [Veorenxere] (puzzle: Sensor v3, turn-off variant 2)	–	–	0.0564	apparent KD of MS2 coat protein [3]: 0.0188 µM; apparent KD of MS2 coat protein [4]: 0.0219 µM
GGUGGACAUGAGGAUCACCCAUGUGAGGAUAUCGGCCGGUUCGUGGUGGCUGGCUUCUCGAGAAGGCGCAUAGU [Exclusion 1 V74] (puzzle: Exclusion 1)	–	–	0.0464	–
GUAGAGUCAGGAUAUACGAGAUCGAAAGAUCGGCGAUCCCUACAUGAGGAUCACCCAUGUAGAAGGGACUCUAC [Eli x2 4.12] (Eterna round: R97, puzzle: Exclusion 2)	0.0287	0.0149	–	–
GUAAUUAUAUAGGAUAUCGAACUUAUAAUUUAACGAGAAGGAUGAACAUGAGGAUCACCCAUGUGGUAUCAUGG [JL-ex6-3.07] (puzzle: Exclusion 6)	–	–	0.207	apparent KD of MS2 coat protein [3]: 0.131 µM; apparent KD of MS2 coat protein [4]: 0.284 µM
CGGGCCCGGGCAGGAUAUGCGGCGGCCCGGGCCGGUGGGCCCGGGCCGACAUGAGGAUCACCCAUGUAGAAGGGCCCGGGCCCG [low energy, MS2 in another position, A 14%] (Eterna round: R96, puzzle: Exclusion NG 2)	0.0157	0.0161	–	apparent KD of MS2 coat protein [1]: 0.0107 µM
AGUACUAACACGCAUGUGUUAGUACAAUAAGCUUGUGAAACAUGAGGAUCACCCAUGUCCUCAUAAGCUCGUCUUAU [salish99_TOv2_r3_068] (puzzle: Sensor v3, turn-off variant 2)	–	–	0.411	apparent KD of MS2 coat protein [3]: 0.0176 µM; apparent KD of MS2 coat protein [4]: 0.0161 µM
UUUUAACAUGAGGAUCACCCAUGUGAGGAUAUCGAAAUUUAUAUUAAUAUUAUUUUUUCGAGAAGGCACAUUUU [JMF 49] (puzzle: Exclusion 1)	–	–	0.148	–
GUACUAGAAUAUCAGUCGCACAUGAGGAUCACCCAUGUCAUGGGUAGAUCAAUAAAUAAAGAUACUGCUCGUCUUAU [Cac sensor turnoff var1 sub2] (Eterna round: R97, puzzle: Sensor, turn-off variant 1)	0.496	0.378	–	–
ACUCCUCCUGUUAGGAUAUGCAUCGGGCUUCCGCAGCAGAAGGAACAUGAGGAUCACCCAUGUCAAAUAAAAUC [Inxebexe] (puzzle: Brourd's mod of Exclusion 4)	–	–	0.0189	–
